Experimental data as given in the Immune Epitope Database (IEDB).

How the values were obtained:
[1] = target: HLA-A*24:03; assay: IEDB peptide-MHC binding, purified MHC/direct/fluorescence; filed as Kd, often an IC50 or EC50 that approximates it; ≥ and ≤ were set here for values at or beyond the usual limits of such assays; details: source organism: Burkholderia mallei ATCC 23344
[2] = target: HLA-A*29:02; assay: as above; details: source organism: Burkholderia mallei ATCC 23344
[3] = target: HLA-A*68:02; assay: as above; details: source organism: Burkholderia mallei ATCC 23344
[4] = target: HLA-B*14:02; assay: as above; details: source organism: Burkholderia mallei ATCC 23344
[5] = target: HLA-B*15:01; assay: as above; details: source organism: Burkholderia mallei ATCC 23344
[6] = target: HLA-B*18:01; assay: as above; details: source organism: Burkholderia mallei ATCC 23344
[7] = target: HLA-B*27:03; assay: as above; details: source organism: Burkholderia mallei ATCC 23344
[8] = target: HLA-B*39:01; assay: as above; details: source organism: Burkholderia mallei ATCC 23344
[9] = target: HLA-B*46:01; assay: as above; details: source organism: Burkholderia mallei ATCC 23344
[10] = target: HLA-B*51:01; assay: as above; details: source organism: Burkholderia mallei ATCC 23344
[11] = target: HLA-B*57:01; assay: as above; details: source organism: Burkholderia mallei ATCC 23344
[12] = target: HLA-A*01:01; assay: IEDB peptide-MHC binding, purified MHC/competitive/fluorescence; filed as Kd, often an IC50 or EC50 that approximates it; ≥ and ≤ were set here for values at or beyond the usual limits of such assays
[13] = target: HLA-A*11:01; assay: as above
[14] = target: HLA-A*30:02; assay: as above
[15] = target: HLA-B*07:02; assay: as above
[16] = target: HLA-B*08:01; assay: as above
[17] = target: HLA-B*15:42; assay: as above; details: source organism: Burkholderia mallei SAVP1
[18] = target: HLA-B*40:01; assay: as above
[19] = target: HLA-B*44:02; assay: as above
[20] = target: HLA-B*45:06; assay: as above; details: source organism: Burkholderia mallei SAVP1
[21] = target: HLA-B*53:01; assay: as above
[22] = target: HLA-B*58:01; assay: as above
[23] = target: HLA-B*83:01; assay: as above; details: source organism: Burkholderia mallei SAVP1
[24] = target: HLA-A*02:01; assay: as above; details: source organism: Shigella flexneri 5 str. 8401
[25] = target: HLA-A*02:03; assay: as above; details: source organism: Shigella flexneri 5 str. 8401
[26] = target: HLA-A*02:19; assay: as above; details: source organism: Shigella flexneri 5 str. 8401
[27] = target: HLA-A*03:01; assay: as above; details: source organism: Shigella flexneri 5 str. 8401
[28] = target: HLA-A*26:01; assay: as above; details: source organism: Shigella flexneri 5 str. 8401
[29] = target: HLA-A*29:02; assay: as above; details: source organism: Shigella flexneri 5 str. 8401
[30] = target: HLA-A*30:01; assay: as above; details: source organism: Shigella flexneri 5 str. 8401
[31] = target: HLA-A*66:01; assay: as above; details: source organism: Shigella flexneri 5 str. 8401
[32] = target: HLA-A*68:02; assay: as above; details: source organism: Shigella flexneri 5 str. 8401
[33] = target: HLA-B*14:02; assay: as above; details: source organism: Shigella flexneri 5 str. 8401
[34] = target: HLA-B*15:01; assay: as above; details: source organism: Shigella flexneri 5 str. 8401
[35] = target: HLA-B*15:17; assay: as above; details: source organism: Shigella flexneri 5 str. 8401
[36] = target: HLA-B*18:01; assay: as above; details: source organism: Shigella flexneri 5 str. 8401
[37] = target: HLA-B*27:03; assay: as above; details: source organism: Shigella flexneri 5 str. 8401
[38] = target: HLA-B*27:05; assay: as above; details: source organism: Shigella flexneri 5 str. 8401
[39] = target: HLA-B*46:01; assay: as above; details: source organism: Shigella flexneri 5 str. 8401
[40] = target: HLA-B*51:01; assay: as above; details: source organism: Shigella flexneri 5 str. 8401
[41] = target: HLA-B*57:01; assay: as above; details: source organism: Shigella flexneri 5 str. 8401
[42] = source organism: Burkholderia mallei SAVP1
[43] = source organism: Shigella flexneri 5 str. 8401

MVFGRFSFA
Kd [1]: ≥ 20 µM | Kd [2]: 0.192 µM | Kd [3]: ≤ 0.001 µM | Kd [4]: 1.18 µM | Kd [5]: ≥ 20 µM | Kd [6]: ≥ 20 µM | Kd [7]: ≥ 20 µM | Kd [8]: ≥ 20 µM | Kd [9]: ≥ 20 µM | Kd [10]: ≥ 20 µM | Kd [11]: ≥ 20 µM | Kd [12, 42]: ≥ 5 µM | Kd [13, 42]: 1.5 µM | Kd [14, 42]: ≥ 20 µM | Kd [15, 42]: ≥ 5 µM | Kd [16, 42]: ≥ 5 µM | Kd [17]: ≥ 5 µM | Kd [18, 42]: ≥ 5 µM | Kd [19, 42]: ≥ 5 µM | Kd [20]: ≥ 5 µM | Kd [21, 42]: ≥ 5 µM | Kd [22, 42]: ≥ 5 µM | Kd [23]: ≥ 5 µM

FGALFMWLL
Kd [12, 43]: ≥ 5 µM | Kd [24]: ≥ 20 µM | Kd [25]: ≥ 20 µM | Kd [26]: ≥ 20 µM | Kd [27]: ≥ 20 µM | Kd [13, 43]: ≥ 5 µM | Kd [28]: ≥ 20 µM | Kd [29]: 0.138 µM | Kd [30]: ≥ 5 µM | Kd [14, 43]: ≥ 5 µM | Kd [31]: ≥ 5 µM | Kd [32]: 0.741 µM | Kd [15, 43]: ≥ 5 µM | Kd [16, 43]: ≥ 5 µM | Kd [33]: ≥ 5 µM | Kd [34]: ≥ 20 µM | Kd [35]: ≥ 20 µM | Kd [36]: ≥ 20 µM | Kd [37]: ≥ 20 µM | Kd [38]: ≥ 5 µM | Kd [18, 43]: ≥ 5 µM | Kd [19, 43]: ≥ 5 µM | Kd [39]: ≥ 20 µM | Kd [40]: ≥ 20 µM | Kd [21, 43]: ≥ 5 µM | Kd [41]: ≥ 20 µM | Kd [22, 43]: ≥ 5 µM
